According to the supplement of paper PMC10567573:

B1: CCDC6 (parent)
chain: ASVTIQARAEQEEEFISNTLFKKI

Variants of: B1
Experiment: protein stability index of a GFP-peptide fusion (GPS, HEK-293T) (PSI 1-6); higher = more stable
Conditions: c terminus: a fixed tail appended
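Also: lentivirally expressed fusions sorted by FACS into six bins by GFP to DsRed ratio, PSI derived from sequencing read proportions per bin multiplied by bin number.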

Variant | protein stability index
ASVTIQARAEEEEEFISNTLFKKI [Q11E] | 4.13
ASVTIQARAEFEEEFISNTLFKKI [Q11F] | 2.07
ASVTIQARAEGEEEFISNTLFKKI [Q11G] | 3.49
ASVTIQARAEHEEEFISNTLFKKI [Q11H] | 3.37
ASVTIQARAEIEEEFISNTLFKKI [Q11I] | 2.39
ASVTIQARAEKEEEFISNTLFKKI [Q11K] | 3.4
ASVTIQARAELEEEFISNTLFKKI [Q11L] | 2.97
ASVTIQARAEMEEEFISNTLFKKI [Q11M] | 2.29
ASVTIQARAENEEEFISNTLFKKI [Q11N] | 3.71
ASVTIQARAEPEEEFISNTLFKKI [Q11P] | 3.67
ASVTIQARAEREEEFISNTLFKKI [Q11R] | 2.83
ASVTIQARAESEEEFISNTLFKKI [Q11S] | 3.75
ASVTIQARAETEEEFISNTLFKKI [Q11T] | 3.4
ASVTIQARAEVEEEFISNTLFKKI [Q11V] | 2.56
ASVTIQARAEWEEEFISNTLFKKI [Q11W] | 2.07
ASVTIQARAEYEEEFISNTLFKKI [Q11Y] | 2.91
ASVTIQARAEQAEEFISNTLFKKI [E12A] | 2.58
ASVTIQARAEQCEEFISNTLFKKI [E12C] | 2.35
ASVTIQARAEQDEEFISNTLFKKI [E12D] | 3.67
ASVTIQARAEQFEEFISNTLFKKI [E12F] | 2.12
ASVTIQARAEQGEEFISNTLFKKI [E12G] | 2.94
ASVTIQARAEQHEEFISNTLFKKI [E12H] | 2.83
ASVTIQARAEQIEEFISNTLFKKI [E12I] | 1.69
ASVTIQARAEQKEEFISNTLFKKI [E12K] | 3.17

Variant | protein stability index
ASVTIQARAEQLEEFISNTLFKKI [E12L] | 2.07
ASVTIQARAEQMEEFISNTLFKKI [E12M] | 1.9
ASVTIQARAEQNEEFISNTLFKKI [E12N] | 3.06
ASVTIQARAEQPEEFISNTLFKKI [E12P] | 3.03
ASVTIQARAEQQEEFISNTLFKKI [E12Q] | 3.27
ASVTIQARAEQREEFISNTLFKKI [E12R] | 2.7
ASVTIQARAEQSEEFISNTLFKKI [E12S] | 2.95
ASVTIQARAEQTEEFISNTLFKKI [E12T] | 2.68
ASVTIQARAEQVEEFISNTLFKKI [E12V] | 2.19
ASVTIQARAEQWEEFISNTLFKKI [E12W] | 2.21
ASVTIQARAEQYEEFISNTLFKKI [E12Y] | 2.2
ASVTIQARAEQEAEFISNTLFKKI [E13A] | 2.8
ASVTIQARAEQECEFISNTLFKKI [E13C] | 3.07
ASVTIQARAEQEDEFISNTLFKKI [E13D] | 3.54
ASVTIQARAEQEFEFISNTLFKKI [E13F] | 2.23
ASVTIQARAEQEGEFISNTLFKKI [E13G] | 3.39
ASVTIQARAEQEHEFISNTLFKKI [E13H] | 2.29
ASVTIQARAEQEIEFISNTLFKKI [E13I] | 2.18
ASVTIQARAEQEKEFISNTLFKKI [E13K] | 3.71
ASVTIQARAEQELEFISNTLFKKI [E13L] | 2.38
ASVTIQARAEQEMEFISNTLFKKI [E13M] | 2.58
ASVTIQARAEQENEFISNTLFKKI [E13N] | 3.16
ASVTIQARAEQEPEFISNTLFKKI [E13P] | 3.4
ASVTIQARAEQEQEFISNTLFKKI [E13Q] | 3.29

Variant | protein stability index
ASVTIQARAEQEREFISNTLFKKI [E13R] | 3.18
ASVTIQARAEQESEFISNTLFKKI [E13S] | 3.11
ASVTIQARAEQETEFISNTLFKKI [E13T] | 3.08
ASVTIQARAEQEVEFISNTLFKKI [E13V] | 2.41
ASVTIQARAEQEWEFISNTLFKKI [E13W] | 2.08
ASVTIQARAEQEYEFISNTLFKKI [E13Y] | 2
ASVTIQARAEQEEAFISNTLFKKI [E14A] | 3.13
ASVTIQARAEQEECFISNTLFKKI [E14C] | 2.08
ASVTIQARAEQEEDFISNTLFKKI [E14D] | 3.31
ASVTIQARAEQEEFFISNTLFKKI [E14F] | 1.87
ASVTIQARAEQEEGFISNTLFKKI [E14G] | 3.02
ASVTIQARAEQEEHFISNTLFKKI [E14H] | 2.7
ASVTIQARAEQEEIFISNTLFKKI [E14I] | 2.22
ASVTIQARAEQEEKFISNTLFKKI [E14K] | 3.2
ASVTIQARAEQEELFISNTLFKKI [E14L] | 1.89
ASVTIQARAEQEEMFISNTLFKKI [E14M] | 2.99
ASVTIQARAEQEENFISNTLFKKI [E14N] | 2.95
ASVTIQARAEQEEPFISNTLFKKI [E14P] | 3.01
ASVTIQARAEQEEQFISNTLFKKI [E14Q] | 2.99
ASVTIQARAEQEERFISNTLFKKI [E14R] | 2.52
ASVTIQARAEQEESFISNTLFKKI [E14S] | 2.79
ASVTIQARAEQEETFISNTLFKKI [E14T] | 2.87
ASVTIQARAEQEEVFISNTLFKKI [E14V] | 2.7
ASVTIQARAEQEEWFISNTLFKKI [E14W] | 1.81

Variant | protein stability index
ASVTIQARAEQEEYFISNTLFKKI [E14Y] | 2.31
ASVTIQARAEQEEEAISNTLFKKI [F15A] | 4.49
ASVTIQARAEQEEECISNTLFKKI [F15C] | 4.19
ASVTIQARAEQEEEDISNTLFKKI [F15D] | 4.68
ASVTIQARAEQEEEEISNTLFKKI [F15E] | 4.69
ASVTIQARAEQEEEGISNTLFKKI [F15G] | 4.4
ASVTIQARAEQEEEHISNTLFKKI [F15H] | 3.72
ASVTIQARAEQEEEIISNTLFKKI [F15I] | 4.18
ASVTIQARAEQEEEKISNTLFKKI [F15K] | 4.13
ASVTIQARAEQEEELISNTLFKKI [F15L] | 3.73
ASVTIQARAEQEEEMISNTLFKKI [F15M] | 3.67
ASVTIQARAEQEEENISNTLFKKI [F15N] | 4.65
ASVTIQARAEQEEEPISNTLFKKI [F15P] | 4.61
ASVTIQARAEQEEEQISNTLFKKI [F15Q] | 4.46
ASVTIQARAEQEEERISNTLFKKI [F15R] | 4.09
ASVTIQARAEQEEESISNTLFKKI [F15S] | 4.03
ASVTIQARAEQEEETISNTLFKKI [F15T] | 4.52
ASVTIQARAEQEEEVISNTLFKKI [F15V] | 4.52
ASVTIQARAEQEEEWISNTLFKKI [F15W] | 2.98
ASVTIQARAEQEEEYISNTLFKKI [F15Y] | 3.78
ASVTIQARAEQEEEFASNTLFKKI [I16A] | 3.84
ASVTIQARAEQEEEFCSNTLFKKI [I16C] | 4.11
